Here are results for one substance from publication PMC11797550.

The target of assay [1] is IGF-2-like, endogenous in the larval fat body. Put plainly: Co-IP (anti-IDE antibody) with western blot band quantification. Conditions: fat body of larvae; 10% gel in SDS-PAGE; three replicates; parent: est. 0.18; read off a plot. (A western blot detects proteins with antibodies after separation by electrophoresis.)
Assay [2] deals with USP1 (ultraspiracle), endogenous in the larval fat body. The description is as above. The conditions noted are these: fat body of larvae; 10% gel in SDS-PAGE; three replicates; parent: est. 0.49; read off a plot.

Regarding “IDE, wild type, endogenous in the larval fat body K179R”, the response (IGF-2-like/ACTB) in assay [1] came out at 0.46. For the same substance, the response in assay [2] was 0.16 USP1/ACTB.
